Results published in patent US20230192897A1 (NUMAB THERAPEUTICS, published 2023).

Assays:
[1] = target: T1, Fc tagged human PDL1 (human, UniProt Q9NZQ7 19-239); experiment: SPR
T1 construct: Bought (Sino Biological, cat. 10084-H02H); captured on the SPR chip; also called PDL1-Fc chimeric protein
Procedure, shortened: (§1)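 Kinetics were fitted with a one-to-one Langmuir model to give apparent ka, kd and KD. Binders at 0.12-90 nM (three-fold series) flowed 3 min, with 10 min dissociation and 3 M MgCl₂ regeneration, on a Biacore T200.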

[2] = target: cynomolgus CD137-Fc chimeric protein (cynomolgus monkey, UniProt A9YYE7 24-186); experiment: SPR
Procedure, shortened: as §1

[3] = target: T2, mouse CD137-Fc chimeric protein (mouse, UniProt P20334 24-187, limits assumed); experiment: SPR
T2 sequence (looked up): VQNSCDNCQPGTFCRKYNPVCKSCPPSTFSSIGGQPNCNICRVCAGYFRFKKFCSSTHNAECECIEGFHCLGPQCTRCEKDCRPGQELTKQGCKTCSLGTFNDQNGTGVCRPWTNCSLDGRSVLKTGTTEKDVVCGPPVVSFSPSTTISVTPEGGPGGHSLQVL
Procedure, shortened: as §1

[4] = target: T3, Fc tagged human CD137 (human, UniProt Q07011 24-186); experiment: SPR
T3 construct: also called CD137-Fc chimeric protein
Procedure, shortened: as §1

[5] = target: human PDL1 on cells (human, UniProt Q9NZQ7 19-290); experiment: cell-based or functional assay
[6] = target: T4, CD137 on Jurkat NFkB reporter cells (human, UniProt Q07011 24-255); experiment: cell-based or functional assay
[7] = target: T4, CD137 on Jurkat NFkB reporter cells; experiment: cell-based or functional assay; remark: listed apart in the source
[8] = target: T4, CD137 on Jurkat NFkB reporter cells; experiment: cell-based or functional assay; remark: listed apart in the source
[9] = target: T4, CD137 on Jurkat NFkB reporter cells; experiment: cell-based or functional assay; remark: listed apart in the source
[10] = target: T5, biotinylated human PDL1 (human, UniProt Q9NZQ7 19-238, limits assumed, biotinylated); experiment: competition ELISA B7.1/PDL1
T5 construct: also called biotinylated PDL1
Procedure, shortened: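 Test mixtures containing biotinylated human PDL1 were pre-incubated 1 h at room temperature, then incubated 1.5 h on the plate under agitation. Bound PDL1 detected with 10 ng/ml streptavidin-polyHRP40 and TMB, stopped at 6 min with HCl, read at 450 nm minus 690 nm. IC₅₀ from 4PL fit.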

[11] = target: T5, biotinylated human PDL1; experiment: competition ELISA PD-1/PDL1
[12] = target: T6, human serum albumin (human, UniProt P02768 25-609); experiment: SPR, SA coupled to chip, pH 5.5
T6 construct: Coupled directly to the CM5 chip; also called HSA; human SA
Method: (§2) Affinity of molecules to serum albumin (SA) of the different species was determined by SPR measurements using a Biacore T200 device (GE Healthcare). SA was directly coupled to a CM5 sensor chip (GE Healthcare) using amine coupling chemistry. […] The assay was run in a 1× PBS-Tween buffer at pH 5.5.

[13] = target: T7, mouse serum albumin (mouse, UniProt P07724 25-608); experiment: SPR, SA coupled to chip, pH 5.5
T7 construct: Coupled directly to the CM5 chip; also called MSA; mouse SA
Method: as §2

[14] = target: T5, biotinylated human PDL1; experiment: competition ELISA PD-1/PDL1 with HSA
Method: (§3) Plates were blocked for 1 hour at room temperature by adding 300 μl of PBS with i%BSA and 0.2% tween (dilution buffer) to each well. Inhibitors were serially diluted in 3-fold steps to final concentrations ranging from 300 to 0.005 ng/ml in dilution buffer containing 1 ng/ml biotinylated human PDL1. The mixtures were pre-incubated for 1 hour at room temperature under gentle agitation on a rotating mixer (21 rpm) and added to the microplates after 3 wash cycles with 450 μl wash buffer per well. Plates were incubated for 1.5 hours at room temperature under gentle agitation, then 10 ng/ml streptavidin-polyHRP40 was added to each microplate well after three washes with 450 μl of wash buffer per well. After 1 h incubation at RT, plates were washed three times with 450 μl wash buffer and TMB substrate solution was added. The enzymatic reaction was stopped after 6 minutes by addition of 1 M HCl and absorbance was measured at 450 nm using 690 nm as a reference wavelength. For calculation of IC₅₀ values, a four-parameter logistic (4PL) curve fit was performed in Graph Pad Prism using reference subtracted values.

[15] = target: T5, biotinylated human PDL1; experiment: PD-1/PDL1 competition ELISA with 1 mg/ml HSA: coated human PD-1, biotinylated human PDL1; blocked ligand: human PD-1
Method: as §3

[16] = target: T7, mouse serum albumin; experiment: SPR, SA coupled to chip
Method: as §2

B1: PRO1057 (other)
chain: DIQMTQSPSSLSASVGDRVTITCQASQSINDYLAWYQQKPGKAPKLLIYKASTLASGVPSRFSGSGSGTDFTLTISSLQPEDFATYYCQQGYIITDIDNVFGTGTKVTVLGGGGGSQVQLQESGPGLVKPSETLSLTCKVSGFSFSNSYWICWIRQPPGKGLEWIGCTFVGSSDSTYYANWAKGRVTISVDSSKNQFSLKLSSVTAADTAVYYCARHPSDAVYGYANNLWGQGTLVTVSSGGGGSGGGGSGGGGSGGGGSIQMTQSPSSLSASVGDRVTITCQASQSINNVLAWYQQKPGKAPKLLIYRASTLASGVPSRFSGSGSGTDFTLTISSLQPEDFATYYCQSSYGNYGDFGTGTKVTVLGGGGGSQVQLQESGPGLVKPSETLSLTCKVSGFSFSSGYDMCWIRQPPGKGLEWIGCVVAGSVDITYYASWAKGRVTISVDSSKNQFSLKLSSVTAADTAVYYCARKDAYSDAFNLWGQGTLVTVSSGGGGSGGGGSVVMTQSPSSLSASVGDRVTITCQASQIISSRSAWYQQKPGQPPKLLIYQASKLASGVPSRFSGSGSGTDFTLTISSLQPEDFATYYCQCTYIDSNFGAFGGGTKLTVLGGGGGSGGGGSGGGGSGGGGSEVQLVESGGGLVQPGGSLRLSCAASGFSFSSSYWICWVRQAPGKGLEWVGCVFTGDGTTYYASWAKGRFTISRDNSKNTVYLQMNSLRAEDTATYFCARPVSVYYYGMDLWGQGTLVTVSS
notes: trispecific scDb-scFv; also called 38-02-A04 sc01 scDb-i/33-03-G02 sc01 scDb-o/23-12-A01-sc03, sk17sh4
Kd [1]: 0.11 nM
koff [1]: 0.00017 s⁻¹
Kd [2]: 4.8 nM
Kd [3]: 1200 nM
Kd [4]: 5.15 nM
koff [4]: 0.0007 s⁻¹
kon [4]: 240000 M⁻¹ s⁻¹
IC50 (ng/ml), NF-AT potency assay, +HSA [5]: 665 ng/mL
rel. IC50 (avelumab/test), +HSA [5]: 0.1 fold
EC50, NFkB reporter, CHO-PDL1, 6 h, +HSA [6]: 0.112 µg/mL
EC50, NFkB reporter, CHO-PDL1, 24 h, +HSA [7]: 0.792 µg/mL
EC50, NFkB reporter, HCC827 with IFNg, 24 h, +HSA [8]: 0.115 µg/mL
EC50, NFkB reporter, HCC827 without IFNg, 24 h, +HSA [8]: 0.0766 µg/mL
IC50 (ng/ml), NFkB reporter, CHO-PD-L1, 24 h, +HSA [9]: 792 ng/mL
IC50 (ng/ml), NFkB reporter, HCC827 + IFNg, 24 h, +HSA [9]: 115 ng/mL
IC50 (ng/ml), NFkB reporter, HCC827 - IFNg, 24 h, +HSA [9]: 76.6 ng/mL
max. activation (%), NFkB reporter, CHO-PD-L1, 24 h, +HSA [9]: 663%
rel. IC50 (urelumab/test), NFkB reporter, CHO-PD-L1, 24 h, +HSA [9]: 0.1 fold
rel. IC50 (urelumab/test), NFkB reporter, HCC827 + IFNg, 24 h, +HSA [9]: 0.46 fold
rel. IC50 (urelumab/test), NFkB reporter, HCC827 - IFNg, 24 h, +HSA [9]: 0.62 fold
IC50 [10]: 0.0163 µg/mL
rel. IC50 (IC50 avelumab/IC50 test) [10]: 0.53 fold
IC50 [11]: 0.00861 µg/mL
rel. IC50 (IC50 avelumab/IC50 test) [11]: 0.2 fold
koff [12]: 0.00067 s⁻¹
kon [12]: 240000 M⁻¹ s⁻¹
kon [13]: 130000 M⁻¹ s⁻¹
fold change of IC50 in presence of human serum albumin [14]: ~2 fold
IC50 (read off the curve) [15]: ~0.02 µg/mL

B2: PRO963 (other)
chain: DIQMTQSPSSLSASVGDRVTITCQASQSINDYLAWYQQKPGKAPKLLIYKASTLASGVPSRFSGSGSGTDFTLTISSLQPEDFATYYCQQGYIITDIDNVFGTGTKVTVLGGGGGSQVQLQESGPGLVKPSETLSLTCKVSGFSFSNSYWICWIRQPPGKGLEWIGCTFVGSSDSTYYANWAKGRVTISVDSSKNQFSLKLSSVTAADTAVYYCARHPSDAVYGYANNLWGQGTLVTVSSGGGGSGGGGSGGGGSGGGGSIQMTQSPSSLSASVGDRVTITCQASQSINNVLAWYQQKPGKAPKLLIYRASTLASGVPSRFSGSGSGTDFTLTISSLQPEDFATYYCQSSYGNYGDFGTGTKVTVLGGGGGSQVQLQESGPGLVKPSETLSLTCKVSGFSFSSGYDMCWIRQPPGKGLEWIGCVVAGSVDITYYASWAKGRVTISVDSSKNQFSLKLSSVTAADTAVYYCARKDAYSDAFNLWGQGTLVTVSSGGGGSGGGGSIQMTQSPSSLSASVGDRVTITCQSSESVYSNNQLSWYQQKPGQPPKLLIYDASDLASGVPSRFSGSGSGTDFTLTISSLQPEDFATYYCAGGFSSSSDTAFGGGTKLTVLGGGGGSGGGGSGGGGSGGGGSEVQLVESGGGLVQPGGSLRLSCAASGFSLSSNAMGWVRQAPGKGLEYIGIISVGGFTYYASWAKGRFTISRDNSKNTVYLQMNSLRAEDTATYFCARDRHGGDSSGAFYLWGQGTLVTVSS
notes: trispecific scDb-scFv anti-PDL1 x CD137 x HSA; also called PRO1051; 38-02-A04 sc01 scDb-i/33-03-G02 sc01 scDb-o/19-01-H04-sc03 scFv
Kd [1]: 0.0066 nM
kon [1]: 2e+06 M⁻¹ s⁻¹
Kd [4]: 3 nM
koff [4]: 0.00062 s⁻¹
kon [4]: 200000 M⁻¹ s⁻¹
IC50 (ng/ml), NF-AT potency assay, +HSA [5]: 275 ng/mL
rel. IC50 (avelumab/test), +HSA [5]: 0.25 fold
max. activation (%), NFkB reporter, CHO-PD-L1, 24 h, +HSA [9]: 369%
binding result [16]: no binding
koff [12]: 0.0003 s⁻¹
